# Experimental data taken from patent publication US20110250133A1, “GASTRIN […] PEPTIDE COMPOUNDS” (priority 2003, published 2011).
# Assays:
# [1] = target: gastrin releasing peptide receptor (GRP-R) (human) (UniProt P30550); assay: saturation binding on PC-3 cells
# mouse GRP-R (mouse) = mouse GRP-R (mouse) (UniProt P21729); assay: receptor autoradiography with 177Lu-L70
# [2] = target: human neuromedin-B preferring receptor (NMB-R) (human) (UniProt P28336); assay: receptor autoradiography with 177Lu-L70
# [3] = target: gastrin releasing peptide receptor (GRP-R) (human) (UniProt P30550); assay: receptor autoradiography with 177Lu-L70
# [4] = target: human bombesin receptor subtype 3 (BB3-R) (human) (UniProt P32247); assay: receptor autoradiography with 177Lu-L70
# [5] = breast cancer patients; cited from earlier work
# gastrin releasing peptide receptor (GRP-R) (human), sequence (P30550 whole entry): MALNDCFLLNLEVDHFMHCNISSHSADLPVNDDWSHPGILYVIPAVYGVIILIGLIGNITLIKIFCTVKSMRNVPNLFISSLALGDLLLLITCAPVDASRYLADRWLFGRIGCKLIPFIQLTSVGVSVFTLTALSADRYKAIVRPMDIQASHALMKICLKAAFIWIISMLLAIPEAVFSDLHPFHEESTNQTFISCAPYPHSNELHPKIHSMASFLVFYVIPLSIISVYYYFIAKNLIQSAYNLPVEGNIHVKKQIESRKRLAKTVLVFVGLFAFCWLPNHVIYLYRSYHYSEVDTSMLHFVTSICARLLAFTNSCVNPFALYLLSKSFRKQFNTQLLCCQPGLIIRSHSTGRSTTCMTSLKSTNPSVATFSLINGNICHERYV
# mouse GRP-R (mouse), sequence (P21729 whole entry): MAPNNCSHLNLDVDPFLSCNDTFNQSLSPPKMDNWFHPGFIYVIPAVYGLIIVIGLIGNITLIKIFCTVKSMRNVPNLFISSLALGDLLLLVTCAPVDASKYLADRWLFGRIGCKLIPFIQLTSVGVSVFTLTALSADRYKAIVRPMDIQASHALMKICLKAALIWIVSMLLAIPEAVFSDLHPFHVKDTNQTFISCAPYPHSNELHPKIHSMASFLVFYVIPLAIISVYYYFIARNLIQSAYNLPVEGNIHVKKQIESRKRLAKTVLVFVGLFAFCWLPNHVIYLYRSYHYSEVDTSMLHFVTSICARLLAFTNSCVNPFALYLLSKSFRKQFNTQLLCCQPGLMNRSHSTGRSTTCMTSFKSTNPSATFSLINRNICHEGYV
# human bombesin receptor subtype 3 (BB3-R) (human), sequence (P32247 whole entry): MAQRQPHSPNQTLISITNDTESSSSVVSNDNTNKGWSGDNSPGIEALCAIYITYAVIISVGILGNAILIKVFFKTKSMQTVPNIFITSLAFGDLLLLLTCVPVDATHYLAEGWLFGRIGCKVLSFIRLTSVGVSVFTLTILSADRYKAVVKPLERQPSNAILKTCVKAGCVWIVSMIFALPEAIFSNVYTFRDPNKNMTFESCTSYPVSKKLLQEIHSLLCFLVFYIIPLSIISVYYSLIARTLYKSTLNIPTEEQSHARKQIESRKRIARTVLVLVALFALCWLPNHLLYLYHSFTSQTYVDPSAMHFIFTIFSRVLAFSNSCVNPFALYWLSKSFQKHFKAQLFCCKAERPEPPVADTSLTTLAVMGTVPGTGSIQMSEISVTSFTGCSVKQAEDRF
# human neuromedin-B preferring receptor (NMB-R) (human), sequence (P28336 whole entry): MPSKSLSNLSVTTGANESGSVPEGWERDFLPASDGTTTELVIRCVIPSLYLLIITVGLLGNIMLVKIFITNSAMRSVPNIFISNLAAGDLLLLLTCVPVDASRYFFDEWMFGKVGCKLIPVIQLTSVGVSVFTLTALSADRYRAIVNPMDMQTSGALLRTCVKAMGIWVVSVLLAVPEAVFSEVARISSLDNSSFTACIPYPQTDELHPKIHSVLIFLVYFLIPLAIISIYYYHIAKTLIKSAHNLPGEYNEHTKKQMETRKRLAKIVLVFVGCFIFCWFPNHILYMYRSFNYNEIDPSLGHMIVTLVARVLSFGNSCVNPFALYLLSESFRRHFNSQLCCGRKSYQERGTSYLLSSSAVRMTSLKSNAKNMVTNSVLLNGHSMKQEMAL
Binding capacity (Bmax) (fmoles/1 × 10^6 cells) [1],Kd [1] [nM],Receptors/cell (receptors/cell) [1],"tissues labelled / tissues tested (of 4 (Mouse pancreas, acini)) (mouse GRP-R (mouse))",tissues labelled / tissues tested (of 4 (Prostate Ca)) [3],"tissues labelled / tissues tested (of 5 (Chronic pancreatitis, acini)) [3]",tissues labelled / tissues tested (of 6 (Renal Ca)) [3],"tissues labelled / tissues tested (of 7 (Colon Ca, smooth muscle)) [3]","tissues labelled / tissues tested (of 7 (Colon Ca, tumor)) [3]","tissues labelled / tissues tested (of 7 (Human pancreas, acini)) [3]",tissues labelled / tissues tested (of 8 (Mammary Ca)) [3],Substance,tissues labelled / tissues tested (of 8 (Ileal carcinoid)) [2],tissues labelled / tissues tested (of 6 (Bronchial carcinoid)) [3],tissues labelled / tissues tested (of 6 (Bronchial carcinoid)) [4],overall response [5] [%]
408,0.44,245000,4,4,5,5,7,3,1,8,177Lu-L70 (peptide),8,2,0,
,,,,,,,,,,,Herceptin®,,,,9
